Biological target: β-amyloid1-42 (UniProt P05067)
Assay: cell-based or functional assay

Ac-SERFYECCKEP-NH2 (also: cyclic, bridge not given here) [cyclic peptide (Ac)…-amide]
ACh rel % Inh @ 100 µM: 81%
Inh ACh rel IC50: 316 nM
